A short description of this data set: protein stability index of a GFP-peptide fusion (GPS, HEK-293T) (PSI 1-6); higher = more stable. The settings on record: c terminus: a fixed tail appended.

± gives the standard deviation.
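Note: 24-mer peptide tiles fused after GFP, lentivirally expressed, FACS-sorted into six equal bins by GFP/DsRed ratio, decoded by Illumina sequencing, PSI is the read-weighted mean bin number.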

On to AAAAAAPAPPPPAGGATAWGDLLG [SNAP91], for which the protein stability index runs as follows: (treatment: DMSO) 4.37 ± 0.17; (treatment: MLN4924 1 uM, 8 h) 4.42 ± 0.081.

Regarding AAFYKGYVPNMLGIIPYAGIDLAV [SLC25A25], the protein stability index turned out to be 2.78 ± 0.45 (treatment: DMSO) and 3.31 ± 0.57 (treatment: MLN4924 1 uM, 8 h).

As to AAHAAQAHRERNEFPEDPEFEAVV [PI4K2A], the protein stability index reads like this: (treatment: DMSO) 5.29 ± 0.66; (treatment: MLN4924 1 uM, 8 h) 5.3 ± 0.28.

Regarding AALAVNTSILSRLPPEALTAPSGG [RNF208], the protein stability index was 3.44 ± 0.24 (treatment: DMSO) and 3.45 ± 0.14 (treatment: MLN4924 1 uM, 8 h).

AALDACSGNDPFAPSEGSAEAAPE [SNAP91]: the protein stability index by setting is: (treatment: DMSO) 5.43 ± 0.25; (treatment: MLN4924 1 uM, 8 h) 5.46 ± 0.3.

For the sequence AALHGLEETKKLANKYLVEDVLLL [KLHL14], the protein stability index (treatment: DMSO) came to 2.42 ± 0.22 and the protein stability index (treatment: MLN4924 1 uM, 8 h) turned out to be 2.55 ± 0.56.

With AAPGVDLTRVLAEMREQYEAMAEK [KRT15], the protein stability index is, setting by setting: (treatment: DMSO) 4.57 ± 0.32; (treatment: MLN4924 1 uM, 8 h) 4.35 ± 0.086.

For AAPRTLAAHPPLPLLPPAMGTEPA [TBX6], the protein stability index (treatment: DMSO) was found to be 4.61 ± 0.43 and the protein stability index (treatment: MLN4924 1 uM, 8 h) turned out to be 4.57 ± 0.29.

On to AAQMMDIWVPIKIGALTYFAQADA [ACSBG2], for which the protein stability index runs as follows: (treatment: DMSO) 2.28 ± 0.69; (treatment: MLN4924 1 uM, 8 h) 2.85 ± 0.49.

Regarding AARSGDAAANKLFHYIPGTDILDL [PLEKHN1], the protein stability index reads like this: (treatment: DMSO) 3.51 ± 0.39; (treatment: MLN4924 1 uM, 8 h) 3.35 ± 0.14.

For the sequence ACTLTVFPPEETTPSPSRESPLSA [KLHL13], the protein stability index came out at 4.35 ± 0.32 (treatment: DMSO) and 4.45 ± 0.15 (treatment: MLN4924 1 uM, 8 h).

On to ADTEEPTKDPDVAFHGLSLGLSLT [PSD2], for which the protein stability index was determined as 4.37 ± 0.25 (treatment: DMSO) and 4.44 ± 0.27 (treatment: MLN4924 1 uM, 8 h).

As for AEKDRRLKKKHQLLEDARRKGMPF [PPFIA4], the protein stability index runs as follows: (treatment: DMSO) 4.05 ± 0.29; (treatment: MLN4924 1 uM, 8 h) 4.29 ± 0.16.

AELAETIVYARVLALHPEAPGLYN [CCDC3]: the protein stability index is 1.99 ± 0.077 (treatment: DMSO) and 2.55 ± 0.2 (treatment: MLN4924 1 uM, 8 h).

Regarding AELLLAARLLGALAARSGAAYGPG [TSPAN10], the protein stability index (treatment: DMSO) stood at 2.93 ± 0.069 and the protein stability index (treatment: MLN4924 1 uM, 8 h) worked out at 2.77 ± 0.73.

Regarding AEMFRRKPLFCGNSEADQLGKIFD [CDK4], the protein stability index is, setting by setting: (treatment: DMSO) 2.98 ± 0.17; (treatment: MLN4924 1 uM, 8 h) 3.06 ± 0.2.

As for AEMNRGSNEWKTVVGGAMFFIGFT [COX4I1], the protein stability index reads like this: (treatment: DMSO) 2.95 ± 0.91; (treatment: MLN4924 1 uM, 8 h) 3.18 ± 0.44.

AERLTATGILLHPWLRQDPMPLAP [TRIB3]: the protein stability index is, setting by setting: (treatment: DMSO) 2.78 ± 0.22; (treatment: MLN4924 1 uM, 8 h) 2.91 ± 0.18.

AETDEHTGANTKKPEDTAEDLTAK [FAM9B]: the protein stability index reads like this: (treatment: DMSO) 5.74 ± 0.23; (treatment: MLN4924 1 uM, 8 h) 5.62 ± 0.12.

Regarding AGEPGHSPADYLRFQDLVLRMLEY [DYRK1B], the protein stability index (treatment: DMSO) is 2.27 ± 0.38 and the protein stability index (treatment: MLN4924 1 uM, 8 h) stood at 2.33 ± 0.22.

As to AGGHPAQLGLGRGASTFKEEPQTV [JUNB], the protein stability index runs as follows: (treatment: DMSO) 4.511 ± 0.035; (treatment: MLN4924 1 uM, 8 h) 4.58 ± 0.32.

Sequence AGIALYSHEDVCVFKCSVSRETEC [CARM1] displayed a protein stability index (treatment: DMSO) of 3 ± 0.3 and a protein stability index (treatment: MLN4924 1 uM, 8 h) of 2.7 ± 0.4.

On to AGPAGTGTPSLLRGKRGGHATNYR [EMID1], for which the protein stability index reads like this: (treatment: DMSO) 4.72 ± 0.49; (treatment: MLN4924 1 uM, 8 h) 4.59 ± 0.22.

As to AGPYLLNGSYLELSSDRVANSSSE [ADAMTSL2], the protein stability index stood at 4.09 ± 0.27 (treatment: DMSO) and 4.07 ± 0.17 (treatment: MLN4924 1 uM, 8 h).

For the sequence AHVNTLHSGTKRDPKEDVFQQNHL [PHTF1], the protein stability index runs as follows: (treatment: DMSO) 4.31 ± 0.15; (treatment: MLN4924 1 uM, 8 h) 4.28 ± 0.18.

Take AIHVLGPIDFEESRFYEIHARARD [PCDHGC5]: the protein stability index (treatment: DMSO) was 2.64 ± 0.45 and the protein stability index (treatment: MLN4924 1 uM, 8 h) came to 3.01 ± 0.095.

Take AILVMHHSMKPHPAITATLLDFMC [INTS3]: the protein stability index reads like this: (treatment: DMSO) 2.91 ± 0.36; (treatment: MLN4924 1 uM, 8 h) 2.98 ± 0.47.

In turn, AISDQLLGAGSDLKDFTLNETVNS [ADAMTSL2] had a protein stability index (treatment: DMSO) of 4.32 ± 0.21 and a protein stability index (treatment: MLN4924 1 uM, 8 h) of 4.8 ± 0.42.

As to AKAAALSTKTPAPCSEFMEPSSDP [SPAG8], the protein stability index by setting is: (treatment: DMSO) 5.1 ± 0.33; (treatment: MLN4924 1 uM, 8 h) 5.41 ± 0.19.

For the sequence AKGGFSGCSAVLSGGSSSSFRAGS [KRT71], the protein stability index runs as follows: (treatment: DMSO) 3.17 ± 0.13; (treatment: MLN4924 1 uM, 8 h) 3.17 ± 0.24.

On to AKTIDTSPPVDLFATASAAVPVST [SNAP91], for which the protein stability index is, setting by setting: (treatment: DMSO) 4.37 ± 0.1; (treatment: MLN4924 1 uM, 8 h) 4.32 ± 0.13.

Turning to ALVCLLSCLLPSSEAKLYGRCELA [SPACA3], the protein stability index reads like this: (treatment: DMSO) 3.18 ± 0.42; (treatment: MLN4924 1 uM, 8 h) 3.04 ± 0.36.

Sequence ANTTPSGKSVSSSSSVETGPSVSE [SPATS1] had a protein stability index (treatment: DMSO) of 5.32 ± 0.23 and a protein stability index (treatment: MLN4924 1 uM, 8 h) of 5.31 ± 0.23.

As to APAAPMVSKGAESSRSSEESSSDS [BRD3], the protein stability index was determined as 5.59 ± 0.19 (treatment: DMSO) and 5.63 ± 0.18 (treatment: MLN4924 1 uM, 8 h).

Regarding APPPRDYTYRDYGHSSSRDDYPSR [RBMX], the protein stability index was 4.43 ± 0.21 (treatment: DMSO) and 4.32 ± 0.078 (treatment: MLN4924 1 uM, 8 h).

Consider APRLAVAVPAVTSADSQFSQTTQA [LYSMD4], for which the protein stability index reads like this: (treatment: DMSO) 4.76 ± 0.16; (treatment: MLN4924 1 uM, 8 h) 4.81 ± 0.19.

Values taken from the supplement of paper PMC10567573.
